Laboratory results: publication PMC4907068, “Phosphatase ABI1 and okadaic acid-sensitive phosphoprotein phosphatases inhibit salt stress-activated SnRK2.4 kinase” (BMC Plant Biology, 2016)

Target: T1, GST-fused ABI1 (Arabidopsis thaliana, UniProt P49597 1-434)
T1 construct: ABI1, PP2C clade A phosphatase, Arabidopsis thaliana, TAIR At4g26080; also called GST-ABI1; recombinant ABI1; not shown: GST, N-terminal, kept
T1 sequence (looked up): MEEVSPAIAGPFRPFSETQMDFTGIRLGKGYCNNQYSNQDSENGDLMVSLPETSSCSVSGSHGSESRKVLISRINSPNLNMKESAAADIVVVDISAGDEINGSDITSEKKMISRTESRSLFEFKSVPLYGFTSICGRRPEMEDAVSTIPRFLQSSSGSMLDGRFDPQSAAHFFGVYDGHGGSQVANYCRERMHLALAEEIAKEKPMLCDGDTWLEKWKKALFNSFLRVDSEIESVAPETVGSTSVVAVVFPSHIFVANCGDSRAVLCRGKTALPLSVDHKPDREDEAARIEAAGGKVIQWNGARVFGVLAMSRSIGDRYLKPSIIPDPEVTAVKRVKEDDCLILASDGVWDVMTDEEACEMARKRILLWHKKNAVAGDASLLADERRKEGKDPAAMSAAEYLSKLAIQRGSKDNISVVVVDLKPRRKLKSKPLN
Assay: pull-down; GST-ABI1 or GST bound to Glutathione-Sepharose 4B beads, incubated with 10 ug recombinant SnRK2.4; 50 mM Tris-HCl pH 8.0, 50 mM NaCl, 0.01 % Triton X-100, 40 mM DTT; 45 min at RT, 5 washes; immunoblot with anti-SnRK2.4/SnRK2.10
Details: both partners purified

binding result: binds
B1: recombinant SnRK2.4 (enzyme, Arabidopsis thaliana, UniProt P43291 1-363, looked up)
chain: MDKYELVKDIGAGNFGVARLMKVKNSKELVAMKYIERGPKIDENVAREIINHRSLRHPNIIRFKEVVLTPTHLAIAMEYAAGGELFERICSAGRFSEDEARYFFQQLISGVSYCHAMQICHRDLKLENTLLDGSPAPRLKICDFGYSKSSLLHSRPKSTVGTPAYIAPEVLSRREYDGKMADVWSCGVTLYVMLVGAYPFEDQEDPKNFRKTIQKIMAVQYKIPDYVHISQDCKNLLSRIFVANSLKRITIAEIKKHSWFLKNLPRELTETAQAAYFKKENPTFSLQTVEEIMKIVADAKTPPPVSRSIGGFGWGGNGDADGKEEDAEDVEEEEEEVEEEEDDEDEYDKTVKEVHASGEVRIS
notes: SnRK2.4, SNF1-related protein kinase 2 of group 1, Arabidopsis thaliana, TAIR At1g10940
